Data from publication PMC3266953 (Scientific Reports, 2012).

Molecular target: the molecule itself
Assay: crystal structure

B1: NcdG347D, truncated dimeric protein (MGSM-H293-K700) (domain or fragment)
chain: MGSMHAALSTEVVHLRQRTEELLRCNEQQAAELETCKEQLFQSNMERKELHNTVMDLRDNIRVFCRIRPPLESEENRMCCTWTYHDESTVELQSIDAQAKSKMGQQIFSFDQVFHPLSSQSDIFEMVSPLIQSALDGYNICIFAYGQTGSGKTYTMDGVPESVGVIPRTVDLLFDSIRGYRNLGWEYEIKATFLEIYNEVLYDLLSNEQKDMEIRMAKNNKNDIYVSNITEETVLDPNHLRHLMHTAKMNRATASTAGNERSSRSHAVTKLELIGRHAEKQEISVGSINLVDLAGSESPKTSTRMTETKNINRSLSELTNVILALLQKQDHIPYRNSKLTHLLMPSLGGNSKTLMFINVSPFQDCFQESVKSLRFAASVNSCKMTKAKRNRYLNNSVANSSTQSNNSGSFDK
stoichiometry N: 2
